Where two headings read alike, the source gives them in different places.
Experiments:
[1] = molecular target: His-tagged NlpE N-terminal domain (E. coli); assay: cross-linking
[2] = molecular target: the molecule itself; assay: dimer band on denaturing SDS-PAGE
[3] = molecular target: the molecule itself; assay: dimer band on denaturing SDS-PAGE; remark: listed apart in the source

## His-tagged NlpE N-terminal domain (domain or fragment)
[1]
  stoichiometry N: 2

B1: C-terminally His-tagged WT NlpE expressed from pTrc99A (natural protein, E. coli, UniProt P40710 21-236, looked up)
chain: CNNRAEVDTLSPAQAAELKPMPQSWRGVLPCADCEGIETSLFLEKDGTWVMNERYLGAREEPSSFASYGTWARTADKLVLTDSKGEKSYYRAKGDALEMLDREGNPIESQFNYTLEAAQSSLPMTPMTLRGMYFYMADAATFTDCATGKRFMVANNAELERSYLAARGHSEKPVLLSVEGHFTLEGNPDTGAPTKVLAPDTAGKFYPNQDCSSLGQ
modifications: lipid-modified N-terminal cysteine (Cys21)
[2]
  stoichiometry N: 2

B2: purified, soluble, C-terminal His×6-tagged NlpE (natural protein, E. coli, UniProt P40710 21-236, looked up)
chain: B1 chain
[3]
  stoichiometry N: 2

From article doi:10.1101/2022.10.18.512811 (bioRxiv, 2022)
